Measured values: IntAct's records for PubMed 23219551

B1: DNA ligase 4 (Homo sapiens), P49917 (parent)
chain: MAASQTSQTVASHVPFADLCSTLERIQKSKGRAEKIRHFREFLDSWRKFHDALHKNHKDVTDSFYPAMRLILPQLERERMAYGIKETMLAKLYIELLNLPRDGKDALKLLNYRTPTGTHGDAGDFAMIAYFVLKPRCLQKGSLTIQQVNDLLDSIASNNSAKRKDLIKKSLLQLITQSSALEQKWLIRMIIKDLKLGVSQQTIFSVFHNDAAELHNVTTDLEKVCRQLHDPSVGLSDISITLFSAFKPMLAAIADIEHIEKDMKHQSFYIETKLDGERMQMHKDGDVYKYFSRNGYNYTDQFGASPTEGSLTPFIHNAFKADIQICILDGEMMAYNPNTQTFMQKGTKFDIKRMVEDSDLQTCYCVFDVLMVNNKKLGHETLRKRYEILSSIFTPIPGRIEIVQKTQAHTKNEVIDALNEAIDKREEGIMVKQPLSIYKPDKRGEGWLKIKPEYVSGLMDELDILIVGGYWGKGSRGGMMSHFLCAVAEKPPPGEKPSVFHTLSRVGSGCTMKELYDLGLKLAKYWKPFHRKAPPSSILCGTEKPEVYIEPCNSVIVQIKAAEIVPSDMYKTGCTLRFPRIEKIRDDKEWHECMTLDDLEQLRGKASGKLASKHLYIGGDDEPQEKKRKAAPKMKKVIGIIEHLKAPNLTNVNKISNIFEDVEFCVMSGTDSQPKPDLENRIAEFGGYIVQNPGPDTYCVIAGSENIRVKNIILSNKHDVVKPAWLLECFKTKSFVPWQPRFMIHMCPSTKEHFAREYDCYGDSYFIDTDLNQLKEVFSGIKNSNEQTPEEMASLIADLEYRYSWDCSPLSMFRRHTVYLDSYAVINDLSTKNEGTRLAIKALELRFHGAKVVSCLAEGVSHVIIGEDHSRVADFKAFRRTFKRKFKILKESWVTDSIDKCELQEENQYLI

Variants of: B1
Conditions: with dcr1c_human DCLRE1C

Row | Variant | effect of a mutation on the interaction
1 | V14A | decreasing interaction strength
2 | F49A | disrupting interaction strength
3 | F42A;F49A | disrupting interaction strength
4 | F42A | disrupting interaction strength
5 | D18H | decreasing interaction strength
